Laboratory results reported in the nanobody polyreactivity screen of Harvey et al. (2022).

Test: yeast display, Sf9 membrane polyspecificity reagent, FACS + sequencing; frameworks hold sequencing errors
Summary of the method: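 Nanobodies from a synthetic yeast display library (Saccharomyces cerevisiae BJ5465), induced 36–48 hours with galactose, were stained 1 hour at 4 °C with 10% biotinylated, detergent-solubilized Sf9 membrane reagent, enriched on streptavidin microbeads, then FACS-sorted. Anti-HA (expression) and streptavidin (reagent binding) fluorescence set low and high (top ~1%) gates. Polyreactivity labels come from the gate of origin. Genes were colony-PCR amplified, MiSeq 2 × 250 sequenced and filtered by CDR length.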

For “QVQLVESGGGLVQAVGSLRLSCAASGTISVANAMGWYRQAPGKERELVAVINTSGTRTYYADSVKGRFTISRDNAKNTVYLQMNSLKPEDTAVYYCAARLRGVQGYEYWGQGTQVTVSS”, the “polyreactivity (PSR sort gate)” value was “low polyreactivity”.
In the case of “QVQLVESGGGLVQAGGSLRLSCAASGGIFGHNAMGWYRQAPGKERELVAAISYTGGSTYYADSVKGRFTISRDNAKNTVNLQMNSLKPEDTAVYYCNAVQRRFRYPFDYWGQGTQVTVSS”, the “polyreactivity (PSR sort gate)” value is reported as “low polyreactivity”.
In the case of “QVQLVESGGGLVEAGGSLRLTCAASGSIFTYYAMGWFRPAPGKERELVADITKSGGRTYYADSVKGRFTISRDNAKNTVYLQMYSLKPEDTAVYYCAAYRRNSRWELDYWGHGTQVTVSS”, the “polyreactivity (PSR sort gate)” value is reported as “high polyreactivity”.
In the case of “QVQLVESGGVLDPAGGSLRLSCAASGSTFISNAMRWYRQAPGKERELVATITYSDATTYYADSVKGRFTISRDNAKNTVYLQMNSLKPEDTAVYYCNTRFFRPLWGYNYWGQGTQVTVSS”, the “polyreactivity (PSR sort gate)” value is reported as “low polyreactivity”.
With “QVQLVESGGGLVQAGCSLRLSCAASGLIFGRNVMGWYRQAPGKERELVAAISWSGGRTYYADSVKGRFTISRDNAKNTVYLQMNSLKPEDTAVYYCATDRSTRTYRSPYDYWGQGTQVTVSS” the “polyreactivity (PSR sort gate)” value was “high polyreactivity”.
For “QVQLVESGGGLVQAGGSLRLSCAASGRIFSYNAMGWYRQAPGKERELVAAISSDGSTYYADSVKGRFTISRDNAKNTVYLQMNRLKPEDTAVYYCAAYPRVNGNIHSTGDYWGQGTQVTVSS”, the “polyreactivity (PSR sort gate)” value was “low polyreactivity”.
In the case of “QVQLVESGGGLVQAGGSLRLSCAASGSIFVPYGMGWYRKAPGTDRELVAAITFRTTSTYYADSVKGRFTISRDNAKNTVYLQMNSLKPEDTAVYYCNKGDYRTYPYDYWGQGTQVTVSS”, the “polyreactivity (PSR sort gate)” value is reported as “low polyreactivity”.
For “QVQLVESGGGLVQAGGSLRLSCAPSGNTFGRNAMGWYRQAPGKERELVAAISFSGSRTYYADSVKGRFTISRDNAKNTVYLQMSSLKPEDTAVYYCNKRGADWTGFFYYEYDYWGQGTQVTVSS”, the “polyreactivity (PSR sort gate)” value was “low polyreactivity”.
In the case of “QVQLVESGGGLVQAGGSLRLSCAASGRTLYIYAMGWYRQAPGKERELVAAIRRIGGRTYYADSVKGRFTISRDNAKNTVYLQMNSLKPEDTAVYYCNARSYRLRFSEMDYWGQGTQVTVSS”, the “polyreactivity (PSR sort gate)” value is reported as “high polyreactivity”.
In the case of “QVQLVESGGGLVQAGGSLRLSCAASGSIFRFYPLGWYRQSPGKERELVAGITWSGASTYYADSVKGRFTISRDNAKNTVYLQMNSLKPEDTAVYYCAKLYRLDGFYYWGQGTQVTVSS”, the “polyreactivity (PSR sort gate)” value is reported as “high polyreactivity”.
In the case of “QVQLVESGGGLVQAGGSLRLSCAASGIIFFSNTMGWYRQAPGKEREFVAAITWSTGNTYYADSVKGRFTISRDNAKNTVYLQMNSLKPEDTAVYYCYAEYLVITWYGGVEFDYWGQGTEVTVSS”, the “polyreactivity (PSR sort gate)” value is reported as “low polyreactivity”.
For “QVQLVESGGGLVQAGGSLRLSCAASGYIFATYAMGWYRQAPGKERELVAAISWSGGRTYYADSVKGRFTISRDNAKNTVYLQMNGLKPEVTAVYYCAAQSYSRMDYWGQGTQVTVSS”, the “polyreactivity (PSR sort gate)” value was “high polyreactivity”.
In the case of “QVQLVESGAGLVQAGGSLRISCAASGFIFNEYAMGWYRQAPGKERELVAAISSGGSTYYADSVKGRFTISRDNAKNTVYLLINSLKPEDTAVYYCNALRRSQPWKYDYWGPGTQVTVSS”, the “polyreactivity (PSR sort gate)” value is reported as “low polyreactivity”.
In the case of “QVQLVESGGGLVQAGGSLRLSCAASGITFIYYAMGWYSQAPGKDRELVAAISRSGGSTYYADSVKGRFTISRDNAKNTVYLQMNSLKPEETAVYYCAADGSKYSGRVTGDYWGQGTQVTVSS”, the “polyreactivity (PSR sort gate)” value is reported as “high polyreactivity”.
For “QVQLVESGGGLVQAGGSLRLSCADSGFIFRYNTMGWYRQAPGKERELVAAITSGDSTYYADSVKGRFTITRDNAKNTVYLQMNSLKPEDTEVYYCAARPYSGRNKYDYWGQGTQVTVSS”, the “polyreactivity (PSR sort gate)” value was “high polyreactivity”.
For “QVQLVESGGGLVQAGGSLRLSCAASGFTFYGYAMGWYRQAPGKERELVAAISSSGGRTYYADSVKGRFTISRDNAKNTVYLQMNSLKPEDTAVYYCAGDYTSRDYYYWGQGTQVTVSS”, the “polyreactivity (PSR sort gate)” value was “high polyreactivity”.
In the case of “QVQLVESVGGLVQAGGSLRLSCAASGSTFGTYAMGWYRQAPGKVSELVAAISNSGGSTYYADSVKGRFTISRDNAKNTVYLQMNSLKPEDTAVYYCNTDGLVRNGPFFSWGQGTQVTVSS”, the “polyreactivity (PSR sort gate)” value is reported as “low polyreactivity”.
With “QVQLVESGGGLVQAGGSLRLSCAASGFTFYAYAMGWYRQAPGKERELVAAISTSGTDTYYADSVKGRFTISRDNAKNTVYLQMNSLKPEDTAVYYCAAELYLYGFYEPIYPYSYDYWGHGTQVTVSS” the “polyreactivity (PSR sort gate)” value was “low polyreactivity”.
For “QVQLVESGGGLVQAGGSLRLSCAASGSTFRTYAMGWYRQAPGKEREFVAAIRYNGGSTYYADSVKGRFTISLDNAKNTVYLQMNSLKPEDTAVYYCAAATYYYRVSWLWYYLDDYWGQGTQVTVSS”, the “polyreactivity (PSR sort gate)” value was “high polyreactivity”.
For “QVQLVESGGGLVQAGGSLRLSCAAFPYAMGWYIPAPAKERELVAAISSSGTSTYYADSVKGRFTISRDNAKNTVYLQMNSLKPEDTAVYYCNTALSRLSQHDYWGQGTQVTVSS”, the “polyreactivity (PSR sort gate)” value was “low polyreactivity”.
In the case of “QDKLVDSGGGLVQAGGSLLLSCAASGFIFLNNAMGWYRQAPGKQRELVAAITWSGGSTYYADSVKGRFTISRDNAKNTVYLQMNSLKPVDTAVYYCAADGWLYYGVGFYSSRRDYYWGQGTQVTVSS”, the “polyreactivity (PSR sort gate)” value is reported as “low polyreactivity”.
In the case of “QVQLEESGGGLVQAGGSLRLSCPASGRTFSVYAIGSYRPAPGKERELLAGITSGGSTNYADSVKGRFTISRDNAKNTVYLQMISLKPEDTAVYYCAAANVYAGFGFVSIGDYWGQGTQVTVSS”, the “polyreactivity (PSR sort gate)” value is reported as “low polyreactivity”.
With “QVQLVESGGGLVQAGGSLRLSCAASGRTCWSYAMGWYRQAPGKEREVVATITGRGGSTYYADSVKGRFTISRDNAKNTVYLQRNSLKPEDTAVYYCAVRSKYRRTFGSWGQGTQVTVSS” the “polyreactivity (PSR sort gate)” value was “high polyreactivity”.
For “QVQLVETGGVLVQAGGSLRLSCAASGITFYRYAMGWYRQAPGKERELVATITSGVSTFYADSVKGRFTISRDNAKNTVYLQMKSLKQEDTAVYFCAAESVWNWYYTTAGMDYWGLGTQVTVSS”, the “polyreactivity (PSR sort gate)” value was “high polyreactivity”.
With “QVQLVESWGGLVQEGGSLRVSCAASGSIFSHYAMGRYRQAPGKEREFVAAIPRGVSTYYADSVKGRFTISRDNAKNTVYLLMNSLKPEYTGVYSCNKTYVRGVHGVYLPITSYDYWGQGTQVTVSS” the “polyreactivity (PSR sort gate)” value was “low polyreactivity”.
For “QVQLVESGGGLVQAGGSLRLSCAASGSIFGINAMGWYRQAPGKERELVAAISYSGGSTYYADTVKGRFTISRDNAKNTVYLQMNSLKPEDTAVYYCARRGKHVAGRYYYWGQVTQVTVSS”, the “polyreactivity (PSR sort gate)” value was “high polyreactivity”.
In the case of “QVQLVESGGGLVQAGGSLRLSCAASGRIFYRNAMGWYRQAPVKERELVASITWRGGRTYYADSVKGRFTISRDNAKNTVYLQMNSLKQEDTAVYYCNAAPRTYNAWDFDYWGQGTQVTVSS”, the “polyreactivity (PSR sort gate)” value is reported as “high polyreactivity”.
In the case of “QVQLQESGGGLVQAGGSLRLSCTASGTIYSTSAMGWYRQAPGKDREFVADIASGASTNYADSVKGRFTISRDNAKNTVYLQMNSLKPEDTAVYYCAAKRIRRRYKYDYWGQGTQVTVSS”, the “polyreactivity (PSR sort gate)” value is reported as “high polyreactivity”.
In the case of “QVQLVESGGGLVQAGGSLRLSCAASGSTFNVNAMGWYSQAPGKERELVATISSGGSTNYADSVKGRFTISRDNAKNTVYLQMNSLKPEDTAVYYCAKEYGSIIPYDYWGQGTQVTVSS”, the “polyreactivity (PSR sort gate)” value is reported as “low polyreactivity”.
With “QVQLVESGGGLVQAGGSLRLSCAASGRIFYYNTMGWYRQAPGKERELVAAITTNGGSTYYADSVKGRFTISRDNAKNTVYLQMNSLKPEDTAVYYCNRDRYPYYYAYNYWGQGTQVTVSS” the “polyreactivity (PSR sort gate)” value was “low polyreactivity”.
With “QVQLVESGGGLVQAGGSLRLRCAASGRIFRIYPMGWYRQAPGKERELVARITYSGGSTYYADSVKGRFTISRDNAKNTVYLQMNSLKPEDTAVYYCAADWLGYQYGYWGQGTQVTVSS” the “polyreactivity (PSR sort gate)” value was “low polyreactivity”.
In the case of “QVQLEETGGGLVQAGGSLRLSCAASGFTFYQYAMGWYRKAPRKERELVAAISSSGTSTYYADSVKGRFTISRDNAKNTVYLQMNSLKPEDTAVYYCAARRYKLFYWGQGTQVTVSS”, the “polyreactivity (PSR sort gate)” value is reported as “low polyreactivity”.
In the case of “QVQLVESGGGLVQAGGSLRLICAASGSIFAYYAMGWYRQAPGKERELVGTNYADSVKGRFTISRDNAKNTVYLQMNSLKPEDTAVYYCAASSRRYLWGFDYWGQGTQVTVSS”, the “polyreactivity (PSR sort gate)” value is reported as “low polyreactivity”.
In the case of “QVQLVESGGGLVQAGGSLRLFCAASGITSSYYAMLWYRQAPGKERDLVADISQSGGSTYYADSVKGRFTISRDNAKNTVYLQMNSLKPEDTAVYYWAADTYWWSYLYDYWGQGTQVTVSS”, the “polyreactivity (PSR sort gate)” value is reported as “high polyreactivity”.
With “QVQLVESGGGLVQAGGSLRLSCAASGFTFLYNAMGWYRQAPGKERELVAAIDSGGMTNYADSVKGRFTISRDNAKNTVYLQMKSLKPEDTAVYYCAARFTQYITSDDGHYYYWGQGTQVTVSS” the “polyreactivity (PSR sort gate)” value was “low polyreactivity”.
For “QVHLVESGGGLVQAGGSLRLSCAASGLIFVYNAMGWYRQAPGKERELVAGITSGGSTYYADSVKGRFTISRDNAKNTVYLQMNSLKPEDTAVSYCAAGYYDLYLWWGYDYWGQGTQVTVSS”, the “polyreactivity (PSR sort gate)” value was “high polyreactivity”.
In the case of “QVQLVESGGGLVQAGGSLRLSCAASGSTFVDNAMGWYRQAPGKERELVAAISTRGGTTYYADSVKGRFTISRDNAKNTVYLQMNSLKPEDTAVYYCAADYYDSGWYGYWGQGTQVTVSS”, the “polyreactivity (PSR sort gate)” value is reported as “high polyreactivity”.
In the case of “QVQLVESGGGLVQAGGSLRLSCAASGRTIYYYAMGGYRQAPGKEREFVAAISWHGGSTYYADSVKGRFTISRDNAKNTVYLQMNSLKPEDTAVYYCAAERYDRVGFDYWGQGTQVTVSS”, the “polyreactivity (PSR sort gate)” value is reported as “low polyreactivity”.
With “QVQLVESGGGLVQAGGSLRLSCAASGSTFQYYAMGWYRQAPGKERELVAAIRTGGSTNYADSVKGRFTISRDNAKNTFYLQMNSLKPEDTAVYYCAKRSLRSYRMNYWGQGTQVTVSS” the “polyreactivity (PSR sort gate)” value was “high polyreactivity”.
With “QVHLVESGGGLVQAGGSLRLSCAASGGTFQSYAMGWYRQAPGKERELVAAITQGGGRTYYADSVKGRFTISRDNAKNTVYLQMNSLKPEDTAVYYCAARQKTPYYYNYGYWGQGTQVTVSS” the “polyreactivity (PSR sort gate)” value was “high polyreactivity”.
In the case of “QVQLVESGGGLVQAGGSLGLSCAASGRSFYFYAMGWYRQAPGKERELVAALSRGGGTNYADSVKGRFTLSRDNATNTVYLQMNSLKPEDTAVYDCAARPGPYWTVTFRSPKYYYWGQGTQVTVSS”, the “polyreactivity (PSR sort gate)” value is reported as “high polyreactivity”.
For “QVQLVESGGGLVQAGGSLRLSCAASGSTFFTNAMGWYRQAPGKERELVATITWSGGSTYADSVKGRFTISRDNAKNTVYLQMNSLKPEDTAVYYCAAESSSYWGDLGGALWLYDYWGQGTQVTVSS”, the “polyreactivity (PSR sort gate)” value was “low polyreactivity”.
With “QVHLVESGGGLVQAGGSLRLSCAASGRIFDYNTMGWYRQAPGKERELVAAITGGTGSTYYADSVKGRFTISRDNAKNTVYLQMNSLKPEDTAVYYCAAGFHKRVTPEILYDYWGQGTQLTVSS” the “polyreactivity (PSR sort gate)” value was “low polyreactivity”.
